Laboratory results: US20240240203A1

Tests used:
[1] = biological target: Ad5 hexon capsid protein with DogTag inserted into the HVR5 loop, on Ad5 virions (Ad5-HVR5-DogTag) (human adenovirus serotype 5 (Ad5)) (UniProt P04133)
[2] = biological target: Ad5 hexon capsid protein with DogTag inserted into the HVR5 loop, on Ad5 virions (Ad5-HVR5-DogTag) (human adenovirus serotype 5 (Ad5)) (UniProt P04133); remark: listed apart in the source

In the case of “DogCatcher fused to SARS CoV-2 Spike receptor binding domain (Wuhan strain, residues 319-532) (from UniProt P0DTC2 319-532)”, the coupling efficiency (% total hexon protein coupled) [1] is reported as 64%.
Substance “DogCatcher fused to the receptor binding domain of haemagglutinin (HA) from Influenza A (H1 A/Califo” has a coupling efficiency (% hexon coupled) [2] of 44%.
